Experimental data published in a protein production outcome set (Wang et al. 2014).

Experiment: label from the status in PepcDB records
In the case of “MKTTTIFTAALLACLSAPAHAQDLRGSEAGAVMKRESDVRDYYELQQRLKESRESRPEEAVTDRTEPAPQPPADGGQRVFISHIVTDPSEILTEDDLRQVVAPLEGKEVSIRELLAMVDRINDLYRQKGYLTARAVLPPQKVERGTVRIRLVEGRVGRISVGGNRHTRDWFVTSRLHLREGDLVRLDTLENDLFRFNAINDVKLRAEVKPGTATGTTDLILRTQEPDNYRVVAFADNGGGRYIGQERLGLTLQDLSLLGIRDPLTVGGTVADGTLSAHASYSLPLTPVGTRLGVTYDYTSIWITSGPFESLDVDGTSSDLGLTLSQPFALSPALSVTTFAGFNWKKSTTDFGGDTIFENRTRTLTLGGDLLAIDGYGTWFTRHVLTQGFHDFGGDRSFFKYNGDLVRTFILPDDFSALVRASGQVSGNHLLPSSEQFQLGGIATVRGFYEGLLIGDDGYFVSAELTLPLFPADASVYDVRLSPLLRGAIFFDHGGAFPYKGSGESIDHNDFLSSAGFGFILNLAKYLTGRIDFGFPVGERDPDPGTVRVHFSLSSEIL”, the protein production was “failed”.
For “MKTYALVMAGGRGERLWPLSREDRPKPFLPLFEGKTLLEATLERLAPLVPPERTLLAVRRDQEAVARPYADGIRLLLEPLGRDTAGAVLLGVAEALKEGAERLLVLPADHYVGDDEAYREALATMLEAAEEGFVVALGLRPTRPETEYGYIRLGPREGAWYRGEGFVEKPSYAEALEYIRKGYVWNGGVFAFAPATMAELFRRHLPSHHEALERLLAGASLEEVYAGLPKISIDYGVMEKAERVRVVLGRFPWDDVGNWRALERVFSQDPHENVVLGEGRHVALDTFGCVVYADRGVVATLGVSGLVVAKVGDEVLVVPKDWAREVREVVKRLEAQE”, the protein production was “not failed”.
With “MKVAVIGSGISGLGSAYVLANQGVKEVVLYEKEESLGGHAKTVRFDGVDLDLGFMVFNRVTYPNMIEFFENLGVEMEVSDMSFAVSLDNGKGCEWGSRNGVSGLFAQKKNVLNPYFWQMIREIVRFKEDVLNYIEKLEGNPDIDRKETLGEFLNTRGYSELFQQAYLVPICGSIWSCPSDGVLSFSAYSVLSFCCNHHLLQIFGRPQWLTVAGRSQTYVAKVRAELERLGCKIRTSCDVKSVSTSENGCVTVTSGDGSEEVFDRCILAMHAPDALRLLGEEVTFDESRVLGAFQYVYSDIYLHHDIDLMPRNKAAWSAWNFLGSTEKKVCVTYWLNILQNLGENSEPFFVTLNPDETPKKALLKWTTGHPVPSVAASIASQELHQIQGKRNIWFCGAYQGYGFHEDGLKAGMAAARGLLGKETALLNNPRHMVPSLTETGARLFVTRFLGQFISTGSVTILEEGGTMFTFGGKDSTCPLKSILKIHSPQFYWKVMTQADLGLADAYINGDFSFVDKESGLLNLIMILIANRDTKSNLTKKRGWWTPMFLTAGLASAKYFLKHVSRQNTLTQARRNISRHYDLSNELFGLFLDDTMTYSSAVFKSDDEDLRTAQMRKISLLIDKARIEKDHEVLEIGCGWGTLAIEVVRRTGCKYTGITLSIEQLKYAEEKVKEAGLQDRITFELRDYRQLSDAHKYDRIISCEMLEAVGHEFMEMFFSRCEAALAEDGLMVLQFISTPEERYNEYRLSSDFIKEYIFPGACVPSLAKVTSAMSSSSRLCIEHVENIGIHYYQTLRLWRKNFLERQKQIMALGFDDKFVRTWEYYFDYCAAGFKTRTLGDYQLVFSRPGNVAAFADSYRGFPSAYCVS” the protein production was “failed”.
With “MKVAVLDFGKTNSKLFVFGQDGGILDERRTQPKWTHQDGFSVLDEAALHDWALGAVTEAVENHGVEGVMVSGHGCTFALVDDAALTHPILDYEQEPPAEIAARIDHRIPDFAETFSPRLPLGFNYGRHMLWVQEVDPDAFAAAKSILGYPQYWSWRLGGRPVSEVSYLGCHSHLWAPRSQDFSSLVDAEGWRGQMPAFARAGAVIGERRLGSSSRPIAIHNGVHDSNAALHAYRRQELGPLTVVSTGTWVVVLNPGCPLDVLDRDRDMLVNVDVDGGPVPTIRFMGGREFAAISAGWQGAIPPGAVQQAIDAGIMALPSFAPGGPMPDRPGRLVGRTPYAAERAAAALLYVALMVDLCLDLIQSQDTVIVDGGLNAGGLLAGLLAELRPGQAFLQGATLEGSATGAAALAFESVGRDFVAEAPEPVHAARFAGLAGYRDAWRDRVGGQGTAIKAAGGARLEHHHHHH” the protein production was “failed”.
With “MKVDREKYGSEKIAKLKILEELKKENPNKKIIAIGNGNNDELLLKNADLGICVIGDEGAWSKTILSSDIVVKDINDALDLLLNENRLKATSRD” the protein production was “failed”.
In the case of “MKVEFLMTNHNHQHHHSHAHGHVHTDNKKVLMFSFIIISLFMLVEIIGGFLANSLALLSDGFHMLSDAISLGVALIAFIYAEKHATKSKTYGYKRFEILAALFNGVTLFIISIIIIIEAIRRFLEPPEVQSKEMFIISVIGLMVNIIVAILMFKGGDTSHNLNMRGAFLHVLGDLFGSVGAIVASLLIWGFNFTIADPIASILVSLIILKSAYGISKSSLNILMEGTPNDIDLNAVIKAISKDERIQNVHDCHVWTISNDMNALSCHAVVPEYLSVQTCETMLKSIESDLLQLNIQHMTIQLETPEHKHDESTLCSGIHEHSH”, the protein production was “failed”.
In the case of “MKVERLSQPAQHLLTAGVENENSFALDTESVFTSAFLRAARGDARSSSRSDVVSLSEIVLEINQSIDELRVEKPAIKMSPQKYLLRNENNAGEFFFIKKARSEGYLQGRTGDPGAGGVDVSGPSDVRIPNRVTIGPDTVLFHPATGAPLLWFVRDGFDYDFFDGSGFHPRTGAKLAPFTKEEALIFEKRIREKEAEIRREAERVEKDRADREARDFAAKEALARKQEEDRKLREAEAARASEAGQRCDELAANPNDRNKVGQGASFSALKAQAADAVKACDLALKQKPSELRFKYQLARALQFSDRPRSFKLHKELVGQGYAASYDNLGWMYYTDRKDKPQAIVLFRQGIQVGDVDSMVSLAELVDRAEATPANASESKIELCRRAAELGHVGAAQCYQVEVAKQEQAEKDRAQQLEQQKMMIQLMGTIIQSATRR”, the protein production was “failed”.
In the case of “MKVIGINGSPRRAGNTSIMLKTIFEVLEDEGIETELIQVGGTNIKGCRACYACIKNKNSECSTKGDGFNEIFAKMVEADGMILGSPTYFADITPELKALIDRAGFVSRTNGQLFRHKVGASVVSLRRGGGIHAYDSINHLFQICQMFMVGSTYWNLGFGGRDGGEVVNDTEGMENMRDLGHSMAFLLKKLHNLEHHHHHH”, the protein production was “not failed”.
In the case of “MKVIKTAPLIPSEIKVLEKEGNRVKISLAPFEFGYAVTLAHPIRRLLLLSSVGYAPVGLKIEGVHHEFDSLRGVTEDVSLFIMNLKNIRFIAKALVGQDSSLENQSVVVDYSFKGPMELRARDLNSEQIEIVNPEMPLATINEDAQLNFSLIIYKGMGYVPSENTRELMPEGYMPLDGSFTPIKKVVYEIENVLVEGDPNYEKIIFDIETDGQIDPYKAFLSAVKVMSKQLGVFGERPIANTEYSGDYAQRDDAKDLSAKIESMNLSARCFNCLDKIGIKYVGELVLMSEEELKGVKNMGKKSYDEIAEKLNDLGYPVGTELSPEQRESLKKRLEKLEDKGGND”, the protein production was “failed”.
In the case of “MKVKKLVGTLLATALFFSALTATYYYQKYQALLANNVENTAKEALHQLAYTGREYNNIQDQIETISDLLGHSQSLYDYLREPSKANLTILENMWSSVARNQKLYKQIRFLDTSGTEKVRIKYDFKTSIAGPSLILRDKSAREYFKYAQSLDNEQISAWGIELERDKGELVYPLSPSLRILMPISVNDVRQGYLVLNVDIEYLSSLLNYSPVRDFHIELVKHKGFYIASPDESRLYGDIIPERSQFNFSNMYPDIWPRVVSEQAGYSYSGEHLIAFSSIKFVSNEPLHLIIDLSNEQLSKRATRDINDLIQESLFVLSLVLVFTLPITALALHYRRHSVESKLARAALDGMTAVMISDASLRIIMVNQEFENMMGYSTEQVKGSNAHSLILLPEDLEETLNIWNKLGRENVWEGEVRCRTQLNHVFTAIMRIQANLTKSGKISYYITSLVDISERKALEEQLRNLSEKDGLTGLWNRRKFEEQLTHYANIVERYPDTPTTCLALFDIDHFKRINDERGHDEGDKVICSVAETLLREVRTTDFVSRVGGEEFAVIMPHTTVKEAEVVLNRLRVAVQLRSNMTVTVSAGYSDLTADRTRSYKCADIALYESKSAGRNCVSLCHSIDDIA”, the protein production was “failed”.
In the case of “MKVKKYDQFNESCYQAQLDNGLTVTLLPKAGYHKTYATFTTNYGSIDNTFVPAGSTEMQRFPDGIAHFLEHKMFEKADHDAFQIFGQYGASANAFTSFTKTSYLFSATRHLQDNLMTLLDFVQDPYFTPATVDKEKGIIGQEIEMYDDDPSWRLYFGMIGNLYPNHPLQYDIAGTTESIAKITADDLYAAYRTFYHPENMTLFVVGNFDPDEVLGWITTNQATKKFAAFQPIERKIPETATDGHDIIPYRTIDMPVNRAKSIVGVKGLLPIEAGAAALKYRAAVNVLLELLFGDTSADYLRLYDQGIIDDTFGYDFELQSGFNFVTFSGETDDPAQFDAAIIDVLENWRTAVVGQEAALALVKKEMIGRVVFMANSLEAIANRYDQRLFGTATIFDEPGIIDQLTLADLQTVAEQLLTSQAISEYQIRPQAKS”, the protein production was “failed”.
For “MKVKSPLEVYNYLPRTNCGECGFDTCMSFAAHILDRSVTPLDCKPLVRDAEKDPKVKKKLEELLELTAPEIAEVVIGVGENAVKIGGEEVLHRHELTFFNPTGFFYDVWDTMDDKALEERCDRVVSYKKFYVGNFLTLDGFAVRCTSGDPKRYREVVKKVASYGKPLILVALDSECMKAALEEVADQRPLMYAATEGNWKEFLKLALEYKVPVTLRAKDLDLLKSMAVTFKQAGVKDIVLDPVTEPLGEGLKGTFERVIQLRRTAIAGQDKDVAYPIMITPIAAWLIEGDDVTKSYWEAVIASIFIVKYGDVMIFRSIDQHVVMPTITLRFNIYTDPRTPVQVEPGLRAINDPGPDDPVFITTNFALTYYTVESDLTSGGIKGWLLVLNTEGLGVEVSVAGGQFTASKVKELIEETKIEEKVNHRYLVIPGLAARLQGAIEDETGWKVLVGPMDSGRIKGWLEKNWPPKE”, the protein production was “not failed”.
With “MKVLGISCSPRPGQTTDRLVQEVLNNIEAPTEFVSLSGRRIGPCLGCLGCVADNVCKVRDDMGELRPLIVEADALVIGAPNYFGMLNGLAHCFLERLYQFRHQEGGALHGKLGVAVGVGSAMPDSAVRDIEKFFSFSRIEPVGNVTAIGPASCFNCGHGEECREGAIHRVFGPGTKITADLTPNLSKQPDSLTAARTLGEKLTQRLKQG” the protein production was “failed”.
With “MKVLGYGREKKVILEAPNYDNDCVLANILAAHYLSSFDPVRARSYALAAESRLGKATLYEKAVFEAVSYLLSENMDDDVALELHSKLLKKFPKDLLSWKRVETLCSYMGRHDLSLPLFRKILPQNEGQVYVNGMLAFCLIELGHLREAEEAARKGCEINENDSWAHHALCHVLQTECRFKEAVKFMEEHSDSWDSCSSLRFSHNWWHVAVCYLEGGSHISKVEEVYDHQMWKELEKDDAVARDVYTDALGLLLRLDTRGKLDDGFQDRLEKLADSLTDKAMWYQDWLFDITTIWALSKVEKTSLAHELLEGLKSRTSAMNPKKQKLMQKAILLAEAVYEYGKGNYEIALELLGLDFDAANYKVIGGSGLQMDVFNEIWYKLLLLNGKSSTGTLLKNTIISIYFGYIFVFSATNSAFTTPEPAAIEVLEKVTKQRDGAPFLWRLLEESYSMEGKEKAGISAGKKAKALESSYFKSA” the protein production was “failed”.
In the case of “MKVLILGGGYTGQRLAQLLAAQSIPVLATTRSGQWPLDEPCVTFDAGSTPLLLPDPAALAGVTHVLSTIPPLGDGGDPVLSTLLPTLQYLSLQWCGYLSTTGVYGDTQGAWVDEDSPLQSTNRRSQQRIAIEAQWLASGLPAHIFRLPGIYGPGRSSFDRLRRGDNQRLLKPGHVFCRIHVDDIAAALWASLQQPNPGRIYNVSDDFPCEPALLIEAAAQLMGVELPPPLPVDAVELSPMAASFWSECRRVRNDRLKQELGVQLRYPSYREGLAAIWAAELEHHHHHH”, the protein production was “failed”.
For “MKVLRLGIVFQLLFVLLLTVGNFARIFIIDHYSVYPIAFFELFLGIGSLSCGVYGLIKTEKPILSLWLICFGLLICVFFIVVYLLPEGDIPPEITWFYSE”, the protein production was “failed”.
